Positions count from the first letter of the chain named.
T1: mouse IL-11 (mouse, UniProt P47873 22-199, limits assumed)
T1 construct: Bought reagent; also called IL-11 (Mouse)
T1 sequence (looked up): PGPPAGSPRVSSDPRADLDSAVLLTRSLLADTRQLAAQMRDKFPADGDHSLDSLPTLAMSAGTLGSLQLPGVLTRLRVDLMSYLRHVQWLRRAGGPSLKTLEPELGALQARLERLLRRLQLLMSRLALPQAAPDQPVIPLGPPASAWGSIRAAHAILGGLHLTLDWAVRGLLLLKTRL

T2: human IL-11 (human, UniProt P20809 22-199, limits assumed)
T2 construct: also called IL-11 antigen; IL-11 protein
T2 sequence (looked up): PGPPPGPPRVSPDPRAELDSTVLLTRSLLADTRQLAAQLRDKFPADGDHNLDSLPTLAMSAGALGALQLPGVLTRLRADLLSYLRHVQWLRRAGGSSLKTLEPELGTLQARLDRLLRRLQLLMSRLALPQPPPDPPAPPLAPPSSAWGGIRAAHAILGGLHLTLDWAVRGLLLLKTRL

T3: IL-11-mFc ligand protein (human, UniProt P20809 22-199)
T3 construct: The construct is not described; also called IL-11 ligand protein; not shown: mFc part (detected with goat anti-mouse IgG)
T3 sequence (looked up): T2 sequence (looked up)

T4: cynomolgus monkey IL-11 (cynomolgus monkey, UniProt P20808 22-199, limits assumed)
T4 construct: Bought reagent; also called IL-11 (Cynomolgus)
T4 sequence (looked up): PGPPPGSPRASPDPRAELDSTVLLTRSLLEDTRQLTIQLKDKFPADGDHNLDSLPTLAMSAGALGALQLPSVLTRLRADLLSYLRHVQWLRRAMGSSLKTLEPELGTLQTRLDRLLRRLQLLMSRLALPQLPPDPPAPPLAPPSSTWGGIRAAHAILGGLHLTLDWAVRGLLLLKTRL

T5: IL-11-Fc antigen (human, UniProt P20809 22-199, limits assumed)
T5 construct: The construct is not described; not shown: Fc part
T5 sequence (looked up): T2 sequence (looked up)

T6: rat IL-11 (rat, UniProt Q99MF5 22-199, limits assumed)
T6 construct: Bought reagent; also called IL-11 (Rat)
T6 sequence (looked up): T1 sequence (looked up) with S50N, L84F, G94A, V137A, I138V

B1: humanized antibody molecule HA-I-A (antibody, human IgG1, kappa, L234A L235A, V domains shown)
VH: QVQLVESGGGLVKPGGSLRLSCAASGFTFSDYYMFWVRQAPGKGLEWVATISDGGTYTYYPDSVKGRFTISRDNAKNSLYLQMNSLRAEDTAVYYCARDGGYVSSPEAMDYWGQGTLVTVSS
VL: DIVLTQSPSSLSASVGDRVTITCRASQDISNYLNWYQQKPGKAPKLLIYYTSRLHSGVPSRFSGSGSGTDFTFTISSLQPEDIATYYCQQGNTLPPTFGGGTKVEIKR
notes: anti-IL-11 monoclonal antibody HA-I-A
B2: chimeric antibody CA-I (antibody, human IgG1, kappa, L234A L235A)
heavy: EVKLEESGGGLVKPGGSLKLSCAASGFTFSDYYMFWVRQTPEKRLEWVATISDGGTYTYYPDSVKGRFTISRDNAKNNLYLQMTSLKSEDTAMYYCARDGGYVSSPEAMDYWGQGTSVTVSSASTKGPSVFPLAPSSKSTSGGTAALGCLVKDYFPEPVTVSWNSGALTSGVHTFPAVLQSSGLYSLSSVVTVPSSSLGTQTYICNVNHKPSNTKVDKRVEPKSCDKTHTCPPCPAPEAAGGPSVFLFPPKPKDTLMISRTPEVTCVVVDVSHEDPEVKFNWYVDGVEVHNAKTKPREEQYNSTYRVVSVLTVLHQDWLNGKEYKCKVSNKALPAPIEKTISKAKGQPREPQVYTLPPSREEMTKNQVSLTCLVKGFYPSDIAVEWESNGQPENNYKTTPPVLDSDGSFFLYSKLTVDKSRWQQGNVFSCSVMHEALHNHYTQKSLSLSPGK
light: DIVLTQSTSSLSASLGDRVTISCRASQDISNYLNWYQQKPDGTVKLLIYYTSRLHSGVPSRFSGSGSGTDYSLTISNLEQEDIATYFCQQGNTLPPTFGGGTKLEIKRTVAAPSVFIFPPSDEQLKSGTASVVCLLNNFYPREAKVQWKVDNALQSGNSQESVTEQDSKDSTYSLSSTLTLSKADYEKHKVYACEVTHQGLSSPVTKSFNRGEC
notes: Variable regions of MA-I on human IgG1 and human Ckappa constant regions
B3: chimeric antibody CA-II (antibody, human IgG1, kappa, L234A L235A)
heavy: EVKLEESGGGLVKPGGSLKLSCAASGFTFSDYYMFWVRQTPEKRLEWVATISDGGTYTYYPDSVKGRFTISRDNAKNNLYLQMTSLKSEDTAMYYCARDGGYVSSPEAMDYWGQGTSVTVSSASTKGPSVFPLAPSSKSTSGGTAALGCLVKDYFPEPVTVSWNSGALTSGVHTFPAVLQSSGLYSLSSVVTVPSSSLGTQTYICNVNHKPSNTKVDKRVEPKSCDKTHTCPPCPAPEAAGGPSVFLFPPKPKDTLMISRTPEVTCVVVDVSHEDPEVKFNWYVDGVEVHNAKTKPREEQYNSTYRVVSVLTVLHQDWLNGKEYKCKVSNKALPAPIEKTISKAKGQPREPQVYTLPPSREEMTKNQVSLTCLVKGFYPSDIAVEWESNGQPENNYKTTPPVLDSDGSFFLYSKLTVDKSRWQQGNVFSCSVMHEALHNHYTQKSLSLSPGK
light: B2 light with P96W
notes: Variable regions of MA-II on human IgG1 and human Ckappa constant regions
B4: humanized antibody molecule HA-I-C (antibody, human IgG1, kappa, L234A L235A, V domains shown)
VH: B1 VH
VL: B1 VL with P44V, F71Y, Y87F
B5: humanized antibody molecule HA-II-B (antibody, human IgG1, kappa, L234A L235A, V domains shown)
VH: B1 VH
VL: B1 VL with F71Y, P96W
B6: humanized antibody molecule HA-I-B (antibody, human IgG1, kappa, L234A L235A, V domains shown)
VH: B1 VH with A49S
VL: B1 VL with F71Y
B7: humanized antibody molecule HA-I-D (antibody, human IgG1, kappa, L234A L235A, V domains shown)
VH: B1 VH with V93M, L117S
VL: B1 VL with K42G, P44V, F71Y, Y87F
B8: humanized antibody molecule HA-II-C (antibody, human IgG1, kappa, L234A L235A, V domains shown)
VH: B1 VH with A49S
VL: B1 VL with F71Y, P96W
B9: humanized antibody molecule HA-II-A (antibody, human IgG1, kappa, L234A L235A, V domains shown)
VH: B1 VH
VL: B1 VL with P96W
B10: humanized antibody molecule HA-II-D (antibody, human IgG1, kappa, L234A L235A, V domains shown)
VH: B1 VH with V93M, L117S
VL: B1 VL with K42G, A43T, P44V, F71Y, Y87F, P96W
B11: murine antibody molecule MA-III (mouse IgG1 / mouse Ckappa) (antibody, V domains shown)
VH: EVKLEQSGAEVVKPGALVKMSCKASGYTFTSYWMHWVKQRPGQGLEWIGVIDPSDSYTTYNQKFKGKATLTVDTSSSTGYMQLSSLTSEDSAVYYCSQYGYDVNWYFDVWGAGTTVTVSS
VL: DIVMTQTTLSLPVSLGDQASISCRSSQSIVHSNGNTYLEWYLQKPGQSPKLLIYEVSNRFSGVPDRFSGSGSGTDFTLKISRVEAEDLGVYYCFQGSHVPWTFGGGTKLEIKA
notes: also called murine anti-IL-11 monoclonal antibody MA-III
B12: murine antibody molecule MA-I (mouse IgG1 / mouse Ckappa) (antibody)
heavy: EVKLEESGGGLVKPGGSLKLSCAASGFTFSDYYMFWVRQTPEKRLEWVATISDGGTYTYYPDSVKGRFTISRDNAKNNLYLQMTSLKSEDTAMYYCARDGGYVSSPEAMDYWGQGTSVTVSSAKTTPPSVYPLAPGSAAQTNSMVTLGCLVKGYFPEPVTVTWNSGSLSSGVHTFPAVLQSDLYTLSSSVTVPSSTWPSETVTCNVAHPASSTKVDKKIVPRDCGCKPCICTVPEVSSVFIFPPKPKDVLTITLTPKVTCVVVDISKDDPEVQFSWFVDDVEVHTAQTQPREEQFNSTFRSVSELPIMHQDWLNGKEFKCRVNSAAFPAPIEKTISKTKGRPKAPQVYTIPPPKEQMAKDKVSLTCMITDFFPEDITVEWQWNGQPAENYKNTQPIMDTDGSYFVYSKLNVQKSNWEAGNTFTCSVLHEGLHNHHTEKSLSHSPG
light: DIVLTQSTSSLSASLGDRVTISCRASQDISNYLNWYQQKPDGTVKLLIYYTSRLHSGVPSRFSGSGSGTDYSLTISNLEQEDIATYFCQQGNTLPPTFGGGTKLEIKADAAPTVSIFPPSSEQLTSGGASVVCFLNNFYPKDINVKWKIDGSERQNGVLNSWTDQDSKDSTYSMSSTLTLTKDEYERHNSYTCEATHKTSTSPIVKSFNRNEC
notes: also called murine anti-IL-11 monoclonal antibody MA-I
B13: murine antibody molecule MA-II (mouse IgG1 / mouse Ckappa) (antibody)
heavy: B12 heavy
light: B12 light with P96W
notes: also called murine anti-IL-11 monoclonal antibody MA-II
B14: murine antibody molecule MA-IV (mouse IgG1 / mouse Ckappa) (antibody, V domains shown)
VH: EVQLEESGGGLVKPGGSLKLSCVASGFTFSDYYMFWVRQTPEKRLEWVATISDGGSYSYYPDSVKGRFTISRDNAKNNLYLQMSSLRSEDTAMYYCARDGGYISSPEAMDYWGQGTSVTVSS
VL: DIVLTQSTSSLSASLGDRVTISCRASQDISNYLNWYQQKPDGTVKLLIYYTSRLHSGVPSRFSGSGSGTDYSLTISNLEQEDIATYFCQQGNTLPPTFGGGTKLEIKA
notes: also called murine anti-IL-11 monoclonal antibody MA-IV

molecular target: T1, mouse IL-11; experiment: ELISA, mouse IL-11 coated, goat anti-human IgG Fab HRP detection

| EC50 [µg/mL] | Binder |
| --- | --- |
| 0.0139 | B1 |

molecular target: T2, human IL-11; experiment: ELISA, human IL-11 coated, goat anti-human IgG Fab HRP detection

| EC50 [µg/mL] | Binder |
| --- | --- |
| 0.0106 | B1 |

molecular target: T2, human IL-11; experiment: ELISA, IL-11 coated, goat anti-human IgG Fab HRP detection

| EC50 [µg/mL] | Binder |
| --- | --- |
| 0.0226 | B2 |
| 0.0464 | B3 |
| 0.0252 | B4 |
| 0.0883 | B5 |
| 0.0232 | B6 |
| 0.0261 | B7 |
| 0.0849 | B8 |
| 0.0204 | B1 |
| 0.102 | B9 |
| 0.0585 | B10 |

molecular target: T3, IL-11-mFc ligand protein; experiment: flow cytometry: inhibition of IL-11-mFc binding to IL-11RA on BaF/3-IL-11RA cells, goat anti-mouse IgG-FITC detection

| IC50 [µg/mL] | Binder |
| --- | --- |
| 19.1 | B11 |
| 3.3 | B12 |
| 11.1 | B13 |
| 59.1 | B14 |

molecular target: T4, cynomolgus monkey IL-11; experiment: ELISA, cynomolgus monkey IL-11 coated, goat anti-human IgG Fab HRP detection

| EC50 [µg/mL] | Binder |
| --- | --- |
| 0.239 | B1 |

molecular target: T3, IL-11-mFc ligand protein; experiment: cell-based or functional assay

| IC50 of inhibition of TIMP-1 secretion by MRC-5 cells stimulated with IL-11-mFc [µg/mL] | Binder |
| --- | --- |
| 0.343 | B4 |
| 0.19 | B6 |
| 0.657 | B7 |
| 0.101 | B1 |

molecular target: T3, IL-11-mFc ligand protein; experiment: flow cytometry: inhibition of IL-11-mFc binding to GP130 on BaF/3-GP130 cells, goat anti-mouse IgG-FITC detection

| IC50 [µg/mL] | Binder |
| --- | --- |
| 46.2 | B4 |
| 39.6 | B6 |
| 128 | B7 |
| 23.5 | B1 |

molecular target: T3, IL-11-mFc ligand protein; experiment: flow cytometry: inhibition of IL-11-mFc binding to IL-11RA on BaF/3-IL-11RA cells, goat anti-mouse IgG-FITC detection; remark: another data set of the same source

| IC50 [µg/mL] | Binder |
| --- | --- |
| 4.87 | B4 |
| 3.58 | B6 |
| 13.8 | B7 |
| 1.68 | B1 |

molecular target: T3, IL-11-mFc ligand protein; experiment: cell-based or functional assay; remark: another data set of the same source

| IC50 of inhibition of TIMP-1 secretion by MRC-5 cells stimulated with IL-11-mFc [µg/mL] | Binder |
| --- | --- |
| 1.36 | B11 |
| 0.453 | B12 |
| 0.475 | B13 |
| 4.6 | B14 |

molecular target: T2, human IL-11; experiment: cell-based or functional assay

| IC50, reporter gene (BaF/3-GP130-STAT3-Luc cells stimulated with IL-11 protein, luciferase) [µg/mL] | Binder |
| --- | --- |
| 0.152 | B4 |
| 0.103 | B6 |
| 0.465 | B7 |
| 0.045 | B1 |

molecular target: T5, IL-11-Fc antigen; experiment: competition ELISA: IL-11-Fc coated, competitor IL-11RA-Fc (IgG4 type) at 0.5 ug/mL, anti-human IgG4-HRP detection

| IC50 [µg/mL] | Binder |
| --- | --- |
| 0.421 | B11 |
| 0.331 | B12 |
| 0.378 | B13 |
| 0.778 | B14 |

molecular target: T6, rat IL-11; experiment: ELISA, rat IL-11 coated, goat anti-human IgG Fab HRP detection

| EC50 [µg/mL] | Binder |
| --- | --- |
| 0.0179 | B1 |

molecular target: T2, human IL-11; experiment: ELISA, IL-11 coated, goat anti-mouse IgG-HRP detection

| EC50 [µg/mL] | Binder |
| --- | --- |
| 0.00379 | B11 |
| 0.00341 | B12 |
| 0.00372 | B13 |
| 0.00425 | B14 |

— patent publication EP4722243A1 (Beijing Dongfang Biotech Co. Ltd., dated 2026)
